Target: GFP-ABCG4 (UniProt Q9H172-1 1-646)
Test: co-IP; HEK293 co-transfected with the GFP-tagged and the untagged protein (untagged in excess), lysed 24 h after transfection in 50 mM Tris pH 7.4, 150 mM NaCl, 0.5% NP-40; precipitated with anti-GFP on protein G-sepharose, 2 h at 4°C; Western blot of the precipitate
Conditions: partners not purified

Sequence of GFP-ABCG4 (Q9H172 whole entry): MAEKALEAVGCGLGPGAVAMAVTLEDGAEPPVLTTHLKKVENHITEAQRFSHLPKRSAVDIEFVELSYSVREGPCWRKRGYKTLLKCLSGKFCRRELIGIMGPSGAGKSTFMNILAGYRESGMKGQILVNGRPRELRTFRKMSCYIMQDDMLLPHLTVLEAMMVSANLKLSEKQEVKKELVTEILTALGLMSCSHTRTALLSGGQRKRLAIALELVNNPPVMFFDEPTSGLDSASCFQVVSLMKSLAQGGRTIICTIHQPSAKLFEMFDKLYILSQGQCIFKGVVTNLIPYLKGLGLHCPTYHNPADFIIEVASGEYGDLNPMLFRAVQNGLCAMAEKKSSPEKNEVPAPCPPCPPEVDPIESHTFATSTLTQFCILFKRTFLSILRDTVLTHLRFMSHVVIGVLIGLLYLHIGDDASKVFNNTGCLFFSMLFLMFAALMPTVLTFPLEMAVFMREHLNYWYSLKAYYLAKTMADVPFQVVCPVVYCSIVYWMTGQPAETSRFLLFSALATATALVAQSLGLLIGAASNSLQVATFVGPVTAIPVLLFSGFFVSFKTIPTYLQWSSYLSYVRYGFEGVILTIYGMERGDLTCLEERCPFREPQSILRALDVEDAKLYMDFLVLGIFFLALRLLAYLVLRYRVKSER

B1: ABCG4 (wild type, untagged) (natural protein)
chain: not shown
notes: the whole cDNA was probably expressed; also called wt ABCG4; source: HEK293, transfected (Fugene HD), in lysate
  stoichiometry N: ~1
